Experiment: yeast display, Sf9 membrane polyspecificity reagent, FACS + sequencing; frameworks hold sequencing errors
Outline: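 In a synthetic yeast display library (Saccharomyces cerevisiae BJ5465), nanobody expression was induced with galactose for 36–48 hours. FACS gates were set low and high (top ~1%) using anti-HA fluorescence for expression and streptavidin fluorescence for binding of the Sf9 membrane reagent. Each polyreactivity label is drawn from the gate of origin.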

QVQLVESGGGLVQAGGSLRLSCAASGSTFPYYAMGWYRQAPGKERELVAAISKSGGSTYYADSVKGRFTISRDNAKNTVYLQMNSLKPEDTAVYYCAAGPRYRYYSGWYDYWGQGTQVTVSS
polyreactivity (PSR sort gate): high polyreactivity

QVQLVESGGGLVQAGGSLRLSCDASGSTFISYAMGWFRQAPGKERELVAAISSGGGRTSYADSVKGRFTISRDNEKNTVYLQMNSLKPEDTAVYYCNTKKLPYAEGYWGQGTQVTVSS
polyreactivity (PSR sort gate): low polyreactivity

QVQLVESGGGLVQAGGILRLSCAASGITFIRNGMGWYRQAPGKERELVAAISDTGARTYYADSVKGSFTISRDNAKNTVYLQMNSLKPVDTAVYYCAAEVRTRYLYSFRWYDYWGQGTQVTVSS
polyreactivity (PSR sort gate): low polyreactivity

QVQLVESGGGLVQAGGSLRLSCAASGIIFKSYAMGWSRQAPGKERELVAAITKRGGSTYYADSVKGRFTISRDNAKNTVYLQMNSLKPEDTAVYYCAADDGVGNTDDYWGQGTQVTVSS
polyreactivity (PSR sort gate): high polyreactivity

QVQLVESGGGLVQAGGSLRLSCAASGRTFGYYAMGWYRQAPGKERELVAAISTRSGSTYYADSVKGRFTISRDNAKNTVYLQMNSLKPEDTAVYYCAADSYPDYDYWGQGTQVTVSS
polyreactivity (PSR sort gate): low polyreactivity

QVQLVESGGGLVQAGGSLRLSCAASGRTFQINAMGWYRQAPGKERELVAAITWSGGSTYYADSVKRRFTISPDNAKNPVYLQMNSLKPADTALYYCNTRYRAYATLNLIAGYNSWGQGTQVTVSS
polyreactivity (PSR sort gate): low polyreactivity

QVQLVESCGGLVQAGGSLRLSCAASGRTFYKNTMGWYRQAPGKERELVATISQRGGSTYYADSVKGRFTISRDNAKNTVFLQMHSLKPEDTAVYYCNARHYYIWWRSPTRTAMNYWGQGTQVTVSS
polyreactivity (PSR sort gate): high polyreactivity

QVQLVESGGGLVQAGGSLRLSCAASGSTFAANTMGWYRQAPGKERELVAAITVRGGSTYYADSVKGRFTISRDNAKNTVYLLMQSLKPEDTAVYYCAAERPPYGYLVVGYVSTQYYYWGQGTQVTVSS
polyreactivity (PSR sort gate): low polyreactivity

QVQLVESGGGLVQAGGSLRLSCAASGRIFYRYAMGWYRQAPGKERELVAAINDGGSTYYADSVKGRFTISRDNAKNTVYLQMNSLKAEDTAVYYCNVVNEHQSDFVVPFDYNHWGQGTQVTVSS
polyreactivity (PSR sort gate): low polyreactivity

QVQLVESGGGLVQAGGSLSLSCAASGSTSVLNAMGWYRHAPGKERELVAALTSGVDSTYYADSVKGRFTISRDNAKNTVYLQMNSVKREDTAVYYCATVVDALDNSYKRVYLFDYWGQGTQVTVSS
polyreactivity (PSR sort gate): low polyreactivity

QVQLVESGGGLVQAGGSLRLSCAASGSILGLNAMGWYRQAPGKERELVAAITSRGGSTYYADSVKGRFTISRDNAKNTVYLQMNSLKPEDTAVYYCNREYVRVNYQYWYYAEYDYWGQGTQVTVSS
polyreactivity (PSR sort gate): low polyreactivity

QVQLVESCGGIVQAGGSLRLSCAASGSTFRVNAMGWYRHSPGKERELVAAIRKSGGSTYADSVKGRFTISRDNAKNTFNLQMNSLKPEDTGVYYCNADATAWLGLADNYWVQGTQVTVSS
polyreactivity (PSR sort gate): low polyreactivity

QVQLVESGGGIVQAGGSLRLSCAGSGIIFWYYAMGWYRQAPGKERELVAAISQSGGRTYYADSVKGRFTISRDNAKNTVYLQMNSLKPEDTAVYYCAAGLVYRWSTTPRRLYYYWGQGTQVTVSS
polyreactivity (PSR sort gate): high polyreactivity

QVQLVESGGGLVQAGGSLCLSCAASGIFVYNAMVWYRQAPGKEREFVAAINKSGASTFYADSVKGRFTISRDNAKNTVYLQMNSLKPEDTAVYYCRERDYWGQGTQVTVSS
polyreactivity (PSR sort gate): low polyreactivity

QVQLEESGGRLVQAGGSLRLSCAASGFTFRYYAMGWYRQAPGKERELVAAITSGGSTNYADSVKGRFTISRDNAKNTVYLQMNSLKPEDTAVYYCKKVPWGSRRMDYWGQGTQVTVSS
polyreactivity (PSR sort gate): high polyreactivity

QVQLVESGGGLVQAGGSLRLSCAASGFTFYRNAMGWYRQPPGKERELVAAIDFSGSSTYYADSVKGRFTISRDNAKNTVYLQMNSLKPEDTAVYDCAAELGYAGYWYDYWGQGTQVTVSS
polyreactivity (PSR sort gate): high polyreactivity

QVQLVESGGGLVQAGGSLRLSCAASGGTFNRYAMGWYRQAPGKERELVAAISWSGGSTYYADSVKGRFTISRDTAKNTVYLQMNSLKPEDTAVYYCNARNWYYEGDYWGQGTQVTVSS
polyreactivity (PSR sort gate): high polyreactivity

QVQLVESGGGLVQAGGSLRLSCAASGSIFKYYAMGWYRQAPGKERELVAAITSGGSTSYADSVKGRFTISRDNAKNTVYLQMNSLKPEDTAVYYCAASGNSYRLRYWWSELDYWGQGTQVTVSS
polyreactivity (PSR sort gate): high polyreactivity

QVQLVESGGGLVQAGGSLRLSCAASGLIFYDYAMGWYRPAPGKERELVAAITSSDSTYYADSVKGRFTISRDNAQNTVYLQMNSLKPEDTAVYYCAAKPYYFYGMDYWGQGTQVTVSS
polyreactivity (PSR sort gate): high polyreactivity

QVQLVDSGGYLVQAGGSLRLSCAASGTTSLFYAMGWYRQAPGKERELVAAISRTGSTHYADSVKGRFTIARANAKYTVYLQMNSLKAEDTAVYYCAAYYRYRSGRYYYWGQGTQVTVSS
polyreactivity (PSR sort gate): high polyreactivity

QVQLVESGGGLVQAGGSLRLSCAASGRTFRAYAMGWYRQAPGKERELVAAIRSGTSTNYADSVKGRFTISRDNAKNTVYLQMNSLKPEDTAVYYCAAEWRKTYRYFTFGYWGQGTQVTVSS
polyreactivity (PSR sort gate): high polyreactivity

QVQLHESGGGLVQAGGSLRLSCAASGTISYAGPMGWYRQAPGTEREFVAGIGVGSNTNYADSVKGRYTIIRDNAKNTVYLQMNSLKPEDTAVYYCAVGGYAPLGRPYWGQGTQVTVSS
polyreactivity (PSR sort gate): low polyreactivity

QVQLVESGGGLVQAGGSLRLSCAASGLTFGRYAMGWYRQAPGKERELVAVINRGGNTYYADSVKGRFTISRDNAKNTVYLQMNSLKPEDTAVYYCAADYLRWAGRYFSWDYDYWGQGTQVTVSS
polyreactivity (PSR sort gate): high polyreactivity

QVQLVESGGGLVQAGGSLRLSCAASGRTLGGYAMGWYRQAPRKERELVAVITWNGGSTYADSVKGRFTISRDNAKNTVYLQMNSLKPVDTAVYYCAARQAYYAAFRTRYGYWGQGTQVTVSS
polyreactivity (PSR sort gate): high polyreactivity

QVQLVESGGGLVQAGGSLRLSCAASGNIFFTYAMGWYIQEPGKERELVAAITSGGRTYYADSVKGRFTISRDNAKNTLHLQMNSLKPEDTAVYYCAAYYKYLGYGYWGQGTQVTVSS
polyreactivity (PSR sort gate): high polyreactivity

QVQLVESGGGLVQAGGSLRLSCAASGSTFRANVMGWYRQAPGKEMELVAAITSGGGSTYYADSVKGRFTISRDNAKNTVYLQMNSLKPEDTAVYYCATRPIQYRRGYDYWGQGTQVTVSS
polyreactivity (PSR sort gate): high polyreactivity

QVQLVESGGGLVQAGGSLRLSCAASGFTYGANTMGWYRQAPGKERELVADISVRGDRTSYADSVKGRFTISRDNAKNTVYLPMNSLKPEDTAVYYCATDIYQHAKRRYDYWGQGTQVTVSS
polyreactivity (PSR sort gate): low polyreactivity

QVQLVESGGGLVQAGGSLRLSCYASGGTFRWYAMGWSRQAPGKERELVAAISYSGGPTYADSVKGRFTISRDNAKNTVYLQMNSLKPEDTAVYYCNAVRYITHYDYWGQGTQVTVSS
polyreactivity (PSR sort gate): high polyreactivity

QGQLVESGGGLVQAGGSLRLSCAASGYIFLTNAMGWSREAPGKERVLVAAISWRGGRTYYADSVKGRFTISRDNAKNTVYLQMNSLKPEDTAVYYCNAVCEYYGKSDYWGQGTQVTVSS
polyreactivity (PSR sort gate): low polyreactivity

QVQLVESGGGLVQAGGSLRLTCAASGRIFRTYAMGWYRQAPGKERELVAAISGRGGNTYYADSVKGRFTISRDNAKNTVYLQMNSLKPEDTAVYYCAASKPSRDTQQRWVYAGYDYWGQGTQVTVSS
polyreactivity (PSR sort gate): high polyreactivity

QVQLVESGGGLVQAGGSLRLSCAASGSTFDGYAMGWYRQAPGKERELVAAITSSSTSTYYADSVKGRFTISRDNAKNTVYLQMNSLKPEDTAVYYCAAQYFSYISVYSFYTMGYWGQGTQVTVSS
polyreactivity (PSR sort gate): low polyreactivity

QVQLVESGGGIGQAGGSLRLSCAASGFTFSRYTMAWFRRAPGKERELVAAINRRGGSTYYADSVKGRFTISRDNAKNTVYLQMNCEKPEDTAVYYCAATYTVRSGNGIANDYWGQGTQVTVSS
polyreactivity (PSR sort gate): high polyreactivity

QVQLVESGGGLVQAGGSLRLSCAASGFTFAPNAMGWYRQAHGKERELVAAISSASSTYYADSVKGRFTISRDNAKNTVYLQMNSLKPEDTAVYYCAAREGWGFYYWGQGTQGTVSS
polyreactivity (PSR sort gate): high polyreactivity

QVQLVESGGGLVQAGGSLRLSCAASGFIFPLYAMGWYRQAPGKERELVAAITWRGDTTSYADSVKGSFTISRDNAKNTVYLQMNSLKPEDTAVYYCAAEFYDWWYYGGGEYWGQGTQVTVSS
polyreactivity (PSR sort gate): high polyreactivity

QVQLVESGGGLVQAGGSLRLSCAASGLIFATYAMRWYRQAPGKERELVADITTTGSTYYADSVKGRFTISRDNAKNTVYLQMNSLKPEDTAVYYCAAYGRWLTWYDFDYWGQGTQVTVSS
polyreactivity (PSR sort gate): high polyreactivity

QVQLVESGGGLVQAGGSLRLSCAASGSIFYRNAMGWYRQAPGKERELVAAISSSVSSTYYADSVKGRFTISRDNAKNTVYLQMNSLKPEDTAVYYCAARRVQRGGDYVYRYLYDYWGQGTQVTVSS
polyreactivity (PSR sort gate): low polyreactivity

QVQLVESCGGLVQAGGSLRLSCAATGLTISRNVMGWYRQAPGKEREWVAAISRSGSTYYADSVKGRFTISRDNAKNTVYLQMNSLKPEDTAVYYCAKERYYTGRYSGHDYCGQGTQVTVSS
polyreactivity (PSR sort gate): high polyreactivity

QVQLVESGGGLVQAGGSLRLSCAASGITVGYYAMGWYRLAPGKERELVAAITRGGGSTYYADSVKGRFTISRDNAKYTVYVQKNSLKPEDTAVYYCAAKTSGPGAGHDYWGQGTQVTVSS
polyreactivity (PSR sort gate): high polyreactivity

QVHLVESGGGLVQAGGILRLSCAASGSIFLYYAMGWYRQAPGKERELVAAITGGGGTNYADSVKGRFTISRDNAKNTFYLQMNSLKPEDTAVYYCGADPSGQFPYSYYNYDYDYWGQGTQVTVSS
polyreactivity (PSR sort gate): low polyreactivity

QVQLVESGGGLVQAGGSLRLSCAASGFTFFIYAMGWYRQAPGKERELVAAISLSGTSTYYADSVKGRFTISRDNAKNSVYLQMNSLKPEDTAVYYCAKDGAYWTYYSGYDYWGQVTQVTVSS
polyreactivity (PSR sort gate): low polyreactivity

QVQLVESGGGLVQAGGSLRLSCAASGRIFYNYSMGWYRQAPGKEREVVAAISGSGGSTYYADSVKGRFTISRDNAKNTVYLQMNSLKPEDTAVYYGSTSGGQYYSRNFEYWGQGTQVTVSS
polyreactivity (PSR sort gate): low polyreactivity

QVQLVESGGGLVQAGGSLRLSCAASGLIFYRYAMGWYRQAPGKERELVATISSGGSTNYADSVKGRFTISRDNAKNTVYLQMNSLKPEDTAVYYCAASRWLYYYLFEYWGQGTQGTVSS
polyreactivity (PSR sort gate): high polyreactivity

QVQLVESGGGLVQAGGSLRLSCAASGSTFPYNAMGWYRQAPGKERELVASISRRGGSTYYADSVKGRFTISRDNAKNTVYLQMNSLKPEDTAVYYCNASGGPYRYYYWGQGTQVTVSS
polyreactivity (PSR sort gate): low polyreactivity
